Experimental data: the FLAb antibody collection (doi:10.7554/elife.23156)

B1: scFv; the commonest letter at each place (parent)
chain 1: EVKLDETGGGLVQPGRPMKLSCVASGFTFSDYWMNWVRQSPEKGLEWVAQIRNKPYNYETYYSDSVKGRFTISRDDSKSSVYLQMNNLRVEDMGIYYCTGSYYGMDYWGQGTSVTVS
chain 2: DVVMTQTPLSLPVSLGDQASISCRSSQSLVHSNGNTYLRWYLQKPGQSPKVLIYKVSNRFSGVPDRFSGSGSGTDFTLKISRVEAEDLGVYFCSQSTHVPWTFGGGTKLEIK

Legend:
fluorescein = variants of: B1; test: Kd (Tite-Seq); settings: with fluorescein; format: scFv 4-4-20, heavy + light
[1] = variants of: B1; test: yeast surface expression (ratio to wild type); higher = more expressed; settings: format: scFv 4-4-20, heavy + light

Row | Variant | Kd (fluorescein) [µM] | yeast surface expression [1]
1 | chain 1 EVKLDETGGGLVQPGRPMKLSCVASGFTFSDYWMNWVRQSPEKGLEWVAQIRNKPYNYETYYSDSVKGRFTISRDDSKSSVYLQMNNLRVEDMGIYYCTGFYYQMDYWGQGTSVTVS chain 2 DVVMTQTPLSLPVSLGDQASISCRSSQSLVHSNGNTYLRWYLQKPGQSPKVLIYKVSNRFSGVPDRFSGSGSGTDFTLKISRVEAEDLGVYFCSQSTHVPWTFGGGTKLEIK [chain 1 S101F G104Q] | ≥ 10 | 0.241
2 | chain 1 EVKLDETGGGLVQPGRPMKLSCVASGFTFSDYWMNWVRQSPEKGLEWVAQIRNKPYNYETYYSDSVKGRFTISRDDSKSSVYLQMNNLRVEDMGIYYCTQSYYGMPYWGQGTSVTVS chain 2 DVVMTQTPLSLPVSLGDQASISCRSSQSLVHSNGNTYLRWYLQKPGQSPKVLIYKVSNRFSGVPDRFSGSGSGTDFTLKISRVEAEDLGVYFCSQSTHVPWTFGGGTKLEIK [chain 1 G100Q D106P] | ≥ 10 | 0.222
3 | chain 1 EVKLDETGGGLVQPGRPMKLSCVASGFTYSDYWMNWIRQSPEKGLEWVAQIRNKPYNYETYYSDSVKGRFTISRDDSKSSVYLQMNNLRVEDMGIYYCTGSYYGMDYWGQGTSVTVS chain 2 DVVMTQTPLSLPVSLGDQASISCRSSQSLVHSNGNTYLRWYLQKPGQSPKVLIYKVSNRFSGVPDRFSGSGSGTDFTLKISRVEAEDLGVYFCSQSTHVPWTFGGGTKLEIK [chain 1 F29Y V37I] | 0.00194 | 0.9
4 | chain 1 EVKLDETGGGLVQPGRPMKLSCVASGFEFSDYWMNWTRQSPEKGLEWVAQIRNKPYNYETYYSDSVKGRFTISRDDSKSSVYLQMNNLRVEDMGIYYCTGSYYGMDYWGQGTSVTVS chain 2 DVVMTQTPLSLPVSLGDQASISCRSSQSLVHSNGNTYLRWYLQKPGQSPKVLIYKVSNRFSGVPDRFSGSGSGTDFTLKISRVEAEDLGVYFCSQSTHVPWTFGGGTKLEIK [chain 1 T28E V37T] | 0.00493 | 0.693
5 | chain 1 EVKLDETGGGLVQPGRPMKLSCVASGFTFSDYWMNWVRQSPEKGLEWVAQIRNKPYNYETYYSDSVKGRFTISRDDSKSSVYLQMNNLRVEDMGIYYCTGSYYYMDHWGQGTSVTVS chain 2 DVVMTQTPLSLPVSLGDQASISCRSSQSLVHSNGNTYLRWYLQKPGQSPKVLIYKVSNRFSGVPDRFSGSGSGTDFTLKISRVEAEDLGVYFCSQSTHVPWTFGGGTKLEIK [chain 1 G104Y Y107H] | ≥ 10 | 0.59
6 | chain 1 EVKLDETGGGLVQPGRPMKLSCVASGFTFSHYWMARVRQSPEKGLEWVAQIRNKPYNYETYYSDSVKGRFTISRDDSKSSVYLQMNNLRVEDMGIYYCTGSYYGMDYWGQGTSVTVS chain 2 DVVMTQTPLSLPVSLGDQASISCRSSQSLVHSNGNTYLRWYLQKPGQSPKVLIYKVSNRFSGVPDRFSGSGSGTDFTLKISRVEAEDLGVYFCSQSTHVPWTFGGGTKLEIK [chain 1 D31H N35A W36R] | ≥ 10 | 2.27
7 | chain 1 EVKLDETGGGLVQPGRPMKLSCVASGFTFSDYWMNWVRQSPEKGLEWVAQIRNKPYNYETYYSDSVKGRFTISRDDSKSSVYLQMNNLRVEDMGIYYCTSSYYGMCYWGQGTSVTVS chain 2 DVVMTQTPLSLPVSLGDQASISCRSSQSLVHSNGNTYLRWYLQKPGQSPKVLIYKVSNRFSGVPDRFSGSGSGTDFTLKISRVEAEDLGVYFCSQSTHVPWTFGGGTKLEIK [chain 1 G100S D106C] | ≥ 10 | 1.03
8 | chain 1 EVKLDETGGGLVQPGRPMKLSCVASGFTFADYWMNWVRQSPEKGLEWVAQIRNKPYNYETYYSDSVKGRFTISRDDSKSSVYLQMNNLRVEDMGIYYCTGSYYGMDYWGQGTSVTVS chain 2 DVVMTQTPLSLPVSLGDQASISCRSSQSLVHSNGNTYLRWYLQKPGQSPKVLIYKVSNRFSGVPDRFSGSGSGTDFTLKISRVEAEDLGVYFCSQSTHVPWTFGGGTKLEIK [chain 1 S30A] | 0.000803 | 1.08

Continued, in another order:

Row | Kd (fluorescein) [µM] | Variant | yeast surface expression [1]
9 | ≥ 10 | chain 1 EVKLDETGGGLVQPGRPMKLSCVASGFTFSDYWMNWVRQSPEKGLEWVAQIRNKPYNYETYYSDSVKGRFTISRDDSKSSVYLQMNNLRVEDMGIYYCTGSCYGMLYWGQGTSVTVS chain 2 DVVMTQTPLSLPVSLGDQASISCRSSQSLVHSNGNTYLRWYLQKPGQSPKVLIYKVSNRFSGVPDRFSGSGSGTDFTLKISRVEAEDLGVYFCSQSTHVPWTFGGGTKLEIK [chain 1 Y102C D106L] | 0.306
10 | ≥ 10 | chain 1 EVKLDETGGGLVQPGRPMKLSCVASGFTFSDYWMNWVRQSPEKGLEWVAQIRNKPYNYETYYSDSVKGRFTISRDDSKSSVYLQMNNLRVEDMGIYYCTGSYCGMDYWAQGTSVTVS chain 2 DVVMTQTPLSLPVSLGDQASISCRSSQSLVHSNGNTYLRWYLQKPGQSPKVLIYKVSNRFSGVPDRFSGSGSGTDFTLKISRVEAEDLGVYFCSQSTHVPWTFGGGTKLEIK [chain 1 Y103C G109A] | 0.397
11 | ≥ 10 | chain 1 EVKLDETGGGLVQPGRPMKLSCVASGFTFSDYWMNWVRQSPEKGLEWVAQIRNKPYNYETYYSDSVKGRFTISRDDSKSSVYLQMNNLRVEDMGIYYCTGSYYGMDYKHQGTSVTVS chain 2 DVVMTQTPLSLPVSLGDQASISCRSSQSLVHSNGNTYLRWYLQKPGQSPKVLIYKVSNRFSGVPDRFSGSGSGTDFTLKISRVEAEDLGVYFCSQSTHVPWTFGGGTKLEIK [chain 1 W108K G109H] | 0.44
12 | ≥ 10 | chain 1 EVKLDETGGGLVQPGRPMKLSCVASGFTFSDYWMNWVRQSPEKGLEWVAQIRNKPYNYETYYSDSVKGRFTISRDDSKSSVYLQMNNLRVEDMGIYYCTGSLYGMDYWNQGTSVTVS chain 2 DVVMTQTPLSLPVSLGDQASISCRSSQSLVHSNGNTYLRWYLQKPGQSPKVLIYKVSNRFSGVPDRFSGSGSGTDFTLKISRVEAEDLGVYFCSQSTHVPWTFGGGTKLEIK [chain 1 Y102L G109N] | 0.369
